Experimental data taken from patent US20230287125A1 (LEPU BIOPHARMA, published 2023).
Changes are numbered by the printed parent chain. Names may count otherwise. Blank lines part the entries; values can stand above or below the binder they belong to.

Assays:
[1] = target: PD-L1 on PD-L1 target cells (Homo sapiens (Human), UniProt Q9NZQ7 19-290); assay: cell-based or functional assay
[2] = target: T1, human PD-L1-his tag protein (human, UniProt Q9NZQ7 19-238); assay: SPR (Biacore), affinity ranking, PDL1-His
T1 construct: also called human PD-L1-His protein; recombinant PD-L1 protein; not shown: his tag
T1 sequence (Q9NZQ7 19-238 limits assumed): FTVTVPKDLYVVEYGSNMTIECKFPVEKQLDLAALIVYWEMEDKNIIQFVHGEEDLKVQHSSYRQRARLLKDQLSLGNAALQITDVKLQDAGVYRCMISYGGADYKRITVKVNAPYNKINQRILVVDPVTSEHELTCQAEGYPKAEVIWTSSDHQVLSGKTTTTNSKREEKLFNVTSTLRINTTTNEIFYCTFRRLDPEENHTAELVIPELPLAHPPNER

human PD-L1-Fc protein [3] = target: T2, human PD-L1-Fc protein (human, UniProt Q9NZQ7 19-238); assay: ELISA, antibody titrated on coated human PD-L1-Fc, OD 450nm; lower left panel
T2 construct: coating antigen of the ELISAs; also called rhPD-L1-Fc; not shown: Fc
T2 sequence (Q9NZQ7 19-238 limits assumed): as above
Method: (§1) To evaluate antigen binding activity, the humanized antibodies were subjected to ELISA test. Briefly, microtiter plates were coated with human PD-L1-Fc protein at 0.5 μg/ml in PBS, 100 μl/well at 4° C. overnight, then blocked with 200 μl/well of 1% BSA. Three-fold dilutions of humanized antibodies starting from 10 μg/ml were added to each well and incubated for 1 hour at 37° C. The plates were washed with PBS/Tween and then incubated with mouse-anti-human IgG Fab antibody conjugated with Horse Radish Peroxidase (HRP) for 1 hour at 37° C. After washing, the plates were developed with TMB substrate and analyzed by spectrophotometer at OD 450 nm.

human PD-L1-Fc protein [4] = target: T2, human PD-L1-Fc protein; assay: ELISA, antibody titrated on coated human PD-L1-Fc, OD 450nm; upper right panel
Method: as §1

human PD-L1-Fc protein [5] = target: T2, human PD-L1-Fc protein; assay: ELISA, antibody titrated on coated human PD-L1-Fc, OD 450nm; lower left panel; the table row is headed 'IC50' on the sheet although the curves rise
Method: as §1

human PD-L1-Fc protein [6] = target: T2, human PD-L1-Fc protein; assay: ELISA, antibody titrated on coated human PD-L1-Fc, OD 450nm; lower right panel
Method: as §1

PD-L1 on PD-L1 target cells, sequence (Q9NZQ7 19-290 limits assumed): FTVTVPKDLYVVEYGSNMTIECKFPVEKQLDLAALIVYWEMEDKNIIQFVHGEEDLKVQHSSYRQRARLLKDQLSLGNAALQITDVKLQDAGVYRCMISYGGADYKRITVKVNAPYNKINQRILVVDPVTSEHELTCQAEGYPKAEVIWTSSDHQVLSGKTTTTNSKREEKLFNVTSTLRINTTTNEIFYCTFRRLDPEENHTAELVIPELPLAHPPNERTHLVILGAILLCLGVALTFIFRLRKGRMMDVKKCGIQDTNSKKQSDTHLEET

- EC50, NFAT-RE-mediated luminescence, PD1 effector cells co-cultured with PD-L1 target cells [1]: 0.214 nM
B1: Hu89C10H8-7, Human IgG1 (N297A)-Fc (antibody, V domains shown)
VH: EVQLVESGGGLVKPGGSLRLSCAASGFTFSNYWMTWIRQAPGKGLEWVASITNTGSSTFYPDSVKGRFTISRDNAKNSLYLQMNSLRAEDTAVYYCTRDTTIAPFDYWGQGTMVTVSS
VL: DIQMTQSPSSLSASVGDRVTITCKASQNLNEYLNWYQQKPGKAPKRLIYKTNTLQAGIPSRFSGSGSGTDYTLTISSLQPEDFATYYCSQYNSGNTFGQGTKLEIK

- Kd [2]: 0.137 nM
- koff [2]: 9.75e-05 s⁻¹
- kon [2]: 712000 M⁻¹ s⁻¹
- EC50 (human PD-L1-Fc protein [3]): 0.00983 µg/mL
B2: Hu89C10H8-14 (antibody, V domains shown)
VH: B1 VH with I37V
VL: B1 VL with P40L, K42E, T69I, Y87F
notes: humanized

- Kd [2]: 0.151 nM
- koff [2]: 8.99e-05 s⁻¹
- kon [2]: 595000 M⁻¹ s⁻¹
- EC50 (human PD-L1-Fc protein [4]): 0.00782 µg/mL
B3: Hu89C10H8-10 (antibody, V domains shown)
VH: B1 VH with I37V
VL: B1 VL with T69I
notes: humanized

- Kd [2]: 0.561 nM
- koff [2]: 0.000433 s⁻¹
- kon [2]: 764000 M⁻¹ s⁻¹
- EC50 (human PD-L1-Fc protein [3]): 0.00994 µg/mL
B4: Hu89C10H8-13 (antibody, V domains shown)
VH: B1 VH with I37V, T97A
VL: B1 VL with P40L, K42E, T69I, Y87F
notes: humanized

- Kd [2]: 0.0918 nM
- koff [2]: 7.17e-05 s⁻¹
- kon [2]: 781000 M⁻¹ s⁻¹
- EC50 (human PD-L1-Fc protein [3]): 0.0088 µg/mL
B5: Hu89C10H8-15 (antibody, V domains shown)
VH: B1 VH
VL: B1 VL with P40L, K42E, T69I, Y87F
notes: humanized

- Kd [2]: 0.713 nM
- koff [2]: 0.000478 s⁻¹
- kon [2]: 671000 M⁻¹ s⁻¹
- EC50 (human PD-L1-Fc protein [4]): 0.00842 µg/mL
B6: Hu89C10H8-9 (antibody, V domains shown)
VH: B1 VH with I37V, T97A
VL: B1 VL with T69I
notes: humanized

- Kd [2]: 0.098 nM
- koff [2]: 6.54e-05 s⁻¹
- kon [2]: 667000 M⁻¹ s⁻¹
- EC50 (human PD-L1-Fc protein [3]): 0.00757 µg/mL
B7: Hu89C10H8-16 (antibody, V domains shown)
VH: B1 VH with N77S
VL: B1 VL with P40L, K42E, T69I, Y87F
notes: humanized

- EC50, NFAT-RE-mediated luminescence, PD1 effector cells co-cultured with PD-L1 target cells [1]: 0.103 nM
B8: Hu67F3G7-22, Human IgG1 (N297A)-Fc (antibody, V domains shown)
VH: EVQLVQSGAEVKKPGASVKVSCKASGYTFTDFWVSWVRQAPGQGLEWMGEIYPNSGVSRYNEKFKGRVTMTVDKSISTAYMELSRLRSDDTAVYYCTKYFGYTYWFGYWGQGTLVTVSS
VL: DIQMTQSPSSLSASVGDRVTITCRASKSVSTYMHWYQQKPGKQPKLLIYSASHLESGVPSRFSGSGSGTDFTLTISSLQPEDFATYYCQQSNELPVTFGGGTKVEIK

- Kd [2]: 0.0331 nM
- koff [2]: 9.51e-05 s⁻¹
- kon [2]: 2.88e+06 M⁻¹ s⁻¹
- EC50 (human PD-L1-Fc protein [5]): 0.014 µg/mL
B9: Hu67F3G7-18 (antibody, V domains shown)
VH: B8 VH with T28I, M48I
VL: DTVLTQSPSLSASVGDRVTITCRASKSVSTYMHWYQQKPGKQPKLLIYSASHLESGVPSRFSGSGSGTDFTLTISSLQPEDFATYYCQQSNELPVTFGGGTKVEIK
notes: humanized

- Kd [2]: 0.0754 nM
- koff [2]: 0.000111 s⁻¹
- kon [2]: 1.48e+06 M⁻¹ s⁻¹
- EC50 (human PD-L1-Fc protein [5]): 0.0114 µg/mL
B10: Hu67F3G7-16 (antibody, V domains shown)
VH: B8 VH with T97A, K98R
VL: B9 VL
notes: humanized

- Kd [2]: 0.0341 nM
- koff [2]: 9.54e-05 s⁻¹
- kon [2]: 2.8e+06 M⁻¹ s⁻¹
- EC50 (human PD-L1-Fc protein [5]): 0.0102 µg/mL
B11: Hu67F3G7-13 (antibody, V domains shown)
VH: B8 VH with T28I, M48I
VL: B8 VL with I2T, Q3V, M4L
notes: humanized

- Kd [2]: 0.0347 nM
- koff [2]: 9.36e-05 s⁻¹
- kon [2]: 2.7e+06 M⁻¹ s⁻¹
- EC50 (human PD-L1-Fc protein [6]): 0.0146 µg/mL
B12: Hu67F3G7-20 (antibody, V domains shown)
VH: B8 VH with T28I, Q43K, M48I
VL: B9 VL
notes: humanized

- Kd [2]: 0.156 nM
- koff [2]: 8.43e-05 s⁻¹
- kon [2]: 540000 M⁻¹ s⁻¹
- EC50 (human PD-L1-Fc protein [6]): 0.00919 µg/mL
B13: Hu67F3G7-21 (antibody, V domains shown)
VH: B8 VH with T97A, K98R
VL: B8 VL
notes: humanized

- Kd [2]: 0.0519 nM
- koff [2]: 0.000109 s⁻¹
- kon [2]: 2.09e+06 M⁻¹ s⁻¹
- EC50 (human PD-L1-Fc protein [5]): 0.0144 µg/mL
B14: Hu67F3G7-14 (antibody, V domains shown)
VH: B8 VH with T28I, M48I, T97A, K98R
VL: B8 VL with I2T, Q3V, M4L
notes: humanized

- Kd [2]: 0.037 nM
- koff [2]: 0.000101 s⁻¹
- kon [2]: 2.74e+06 M⁻¹ s⁻¹
- EC50 (human PD-L1-Fc protein [5]): 0.0136 µg/mL
B15: Hu67F3G7-17 (antibody, V domains shown)
VH: B8 VH
VL: B9 VL
notes: humanized

- Kd [2]: 0.0545 nM
- koff [2]: 0.000107 s⁻¹
- kon [2]: 1.97e+06 M⁻¹ s⁻¹
- EC50 (human PD-L1-Fc protein [6]): 0.0132 µg/mL
B16: Hu67F3G7-19 (antibody, V domains shown)
VH: B8 VH with T28I, M48I, T97A, K98R
VL: B9 VL
notes: humanized

- Kd [2]: 0.0371 nM
- koff [2]: 9.69e-05 s⁻¹
- kon [2]: 2.61e+06 M⁻¹ s⁻¹
- EC50 (human PD-L1-Fc protein [5]): 0.0111 µg/mL
B17: Hu67F3G7-15 (antibody, V domains shown)
VH: B8 VH with T28I, Q43K, M48I
VL: B8 VL with I2T, Q3V, M4L
notes: humanized

- EC50, NFAT-RE-mediated luminescence, PD1 effector cells co-cultured with PD-L1 target cells [1]: 0.15 nM
B18: 47C6A3, Human IgG1 (N297A)-Fc (antibody, V domains shown)
VH: DVQLQESGPGLVKPSQSLSLTCTVTGYSITSDYAWNWIRQFPGNKLEWMGYIIYSGSTSYNPSLKSRISITRDTSKNQFFLQLNSVTTEDTATYYCARSTMIATNWFAYWGQGTLVTVSA
VL: DIVMTQSHKFMSTSVVDRVSITCKASQDVSLAVAWYQQKPGQSPKLLIYWASTRHTGVPDRFTGSGSGTDFALTISSVQAEDLALYYCQQHYITPWTFGGGTKLEIK
